The supplement of paper PMC10567573

B1: SMTNL2 (parent)
chain: ETAAGKGKGEARARLKRSQSFGVA

Variants of: B1
Assay: protein stability index of a GFP-peptide fusion (GPS, HEK-293T) (PSI 1-6); higher = more stable
Conditions: c terminus: a fixed tail appended
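Also: lentivirally expressed fusions sorted by FACS into six bins by GFP to DsRed ratio, PSI derived from sequencing read proportions per bin multiplied by bin number.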

Protein stability index of substitutions, site by site:
G22: R 4.28, Q 4.36, C 4.84, K 4.81, A 4.2, Y 3.84, P 5.71, E 5.65, I 3.9, L 4.1, S 5.13, N 4.76, M 3.86, F 2.84, D 5.1, W 2.81, V 4.32, H 4.14, T 4.31
A24: P 4.88, H 4.27, L 4.49, S 4.65, F 3.97, M 4.29, D 4.9, C 4.28, V 4.01, K 4.41, E 4.71, Q 4.51, I 3.75, W 3.57, R 4.52, N 5.09, T 4.23, G 4.6, Y 3.72
Q19: E 5.15, F 3.67, D 4.61, T 4.68, P 4.45, H 4.81, N 4.89, L 4.08, W 4.33, R 4.3, G 4.38, C 4.09, K 4.46, M 4.18, V 3.96, S 3.19, I 3.27, Y 3.89, A 4.35
R17: G 4.24, A 4.14, L 3.76, N 4.54, Q 4.67, H 4.54, D 4.31, V 3.59, F 3.19, S 4.18, T 4.17, Y 3.81, I 3.82, E 4.65, M 4.09, W 2.95, K 4.6, C 3.62, P 3.23
S18: T 4.22, E 4.36, P 4.01, M 3.69, H 4.02, W 3.64, Y 2.89, F 3.65, L 3.49, A 4.22, V 3.94, I 3.52, Q 4.43, D 4.46, N 4.5, R 4.26, K 4.43, C 3.81, G 4.6
V23: Q 4.94, A 5.1, M 4.84, H 5.02, Y 4.11, D 4.84, K 4.95, G 5.23, L 3.68, R 4.89, I 4.39, C 4.83, P 4.62, E 5.35, F 3.98, N 4.68, S 5.17, T 4.75, W 3.96
S20: K 4.69, C 4.51, P 4.27, M 4.3, D 4.58, H 4.26, A 4.56, Y 3.98, G 3.76, N 4.3, R 4.09, Q 4.08, V 4.27, T 4.77, I 3.5, E 4.87, L 4.02, W 3.02, F 4.09
F21: N 5, T 5.16, D 5.51, I 5.28, L 5.02, M 4.3, V 5.25, E 5.45, H 4.96, Y 4.65, Q 5.2, S 5.07, K 5.23, C 5.02, P 5.12, A 5.25, W 3.22, G 4.08, R 4.23
